Measured values taken from patent US20250186594A1.

Tests used:
[1] = biological target: IL-18 variant SEQ ID NO: 57 (E6K, C38S, K53A) (human) (UniProt Q14116)
[2] = biological target: Native IL-18 wild-type (SEQ ID NO: 1, native sequence) (human) (UniProt Q14116)
[3] = biological target: IL-18 variant SEQ ID NO: 30 with 20 kDa PEG (E6K, V11I, C38A, K53A, T63A, C76A, C127A, C68-20kPEG) (human) (UniProt Q14116); experiment: cell-based or functional assay
[4] = biological target: IL-18 variant SEQ ID NO: 217 (V11I, C38A, N41A, K53A, C76A, C127A) (human) (UniProt Q14116); experiment: cell-based or functional assay
IL-18 variant SEQ ID NO: 217 (V11I, C38A, N41A, K53A, C76A, C127A) (human), sequence (Q14116 37-193 V47I/C74A/N77A/K89A/C112A/C163A): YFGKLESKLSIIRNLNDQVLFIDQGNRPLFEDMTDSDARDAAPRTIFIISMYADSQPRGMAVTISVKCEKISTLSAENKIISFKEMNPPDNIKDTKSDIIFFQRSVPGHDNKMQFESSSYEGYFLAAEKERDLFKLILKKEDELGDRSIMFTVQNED

[5] = biological target: IL-18 variant SEQ ID NO: 210 (V11I, E31A, C38A, K53A, C76A, C127A) (human) (UniProt Q14116); experiment: cell-based or functional assay
IL-18 variant SEQ ID NO: 210 (V11I, E31A, C38A, K53A, C76A, C127A) (human), sequence (Q14116 37-193 V47I/E67A/C74A/K89A/C112A/C163A): as the sequence (Q14116 37-193 V47I/C74A/N77A/K89A/C112A/C163A) above, with E31A, A41N counted along it

[6] = biological target: IL-18 variant SEQ ID NO: 212 (V11I, D35A, C38A, K53A, C76A, C127A) (human) (UniProt Q14116); experiment: cell-based or functional assay
IL-18 variant SEQ ID NO: 212 (V11I, D35A, C38A, K53A, C76A, C127A) (human), sequence (Q14116 37-193 V47I/D71A/C74A/K89A/C112A/C163A): as the sequence (Q14116 37-193 V47I/C74A/N77A/K89A/C112A/C163A) above, with D35A, A41N counted along it

[7] = biological target: IL-18 variant SEQ ID NO: 4 (E6K, C38A, K53A, C68A, M86C) (human) (UniProt Q14116); experiment: cell-based or functional assay
IL-18 variant SEQ ID NO: 4 (E6K, C38A, K53A, C68A, M86C) (human), sequence (Q14116 other isoform, or with tags, fused parts or gaps C38A K53A C68A M86C C38A K53A C68A M86C): as the sequence (Q14116 37-193 V47I/C74A/N77A/K89A/C112A/C163A) above, with E6K, I11V, A41N, C68A, A76C, M86C, A127C counted along it

[8] = biological target: IL-18 variant SEQ ID NO: 28 with 30 kDa PEG (E6K, C38A, K53A, T63A, C76A, C127A, C68-30kPEG) (human) (UniProt Q14116); experiment: cell-based or functional assay
IL-18 variant SEQ ID NO: 28 with 30 kDa PEG (E6K, C38A, K53A, T63A, C76A, C127A, C68-30kPEG) (human), sequence (Q14116 other isoform, or with tags, fused parts or gaps C38A K53A T63A C76A C127A C38A K53A T63A C76A C127A): as the sequence (Q14116 37-193 V47I/C74A/N77A/K89A/C112A/C163A) above, with E6K, I11V, A41N, T63A counted along it

[9] = biological target: IL-18 variant SEQ ID NO: 214 (V11I, D37A, C38A, K53A, C76A, C127A) (human) (UniProt Q14116); experiment: cell-based or functional assay
IL-18 variant SEQ ID NO: 214 (V11I, D37A, C38A, K53A, C76A, C127A) (human), sequence (Q14116 37-193 V47I/D73A/C74A/K89A/C112A/C163A): as the sequence (Q14116 37-193 V47I/C74A/N77A/K89A/C112A/C163A) above, with D37A, A41N counted along it

[10] = biological target: IL-18 variant SEQ ID NO: 221 (V11I, C38A, K53A, C76A, D110A, C127A) (human) (UniProt Q14116); experiment: cell-based or functional assay
IL-18 variant SEQ ID NO: 221 (V11I, C38A, K53A, C76A, D110A, C127A) (human), sequence (Q14116 37-193 V47I/C74A/K89A/C112A/D146A/C163A): as the sequence (Q14116 37-193 V47I/C74A/N77A/K89A/C112A/C163A) above, with A41N, D110A counted along it

[11] = biological target: IL-18 variant SEQ ID NO: 208 (V11I, C38A, K53A, D54A, C76A, C127A) (human) (UniProt Q14116); experiment: cell-based or functional assay
IL-18 variant SEQ ID NO: 208 (V11I, C38A, K53A, D54A, C76A, C127A) (human), sequence (Q14116 37-193 V47I/C74A/K89A/D90A/C112A/C163A): as the sequence (Q14116 37-193 V47I/C74A/N77A/K89A/C112A/C163A) above, with A41N, D54A counted along it

[12] = biological target: IL-18 variant SEQ ID NO: 61 (E6K, C38A, K53A, C76A) (human) (UniProt Q14116); experiment: cell-based or functional assay
IL-18 variant SEQ ID NO: 61 (E6K, C38A, K53A, C76A) (human), sequence (Q14116 other isoform, or with tags, fused parts or gaps C38A K53A C76A C38A K53A C76A): as the sequence (Q14116 37-193 V47I/C74A/N77A/K89A/C112A/C163A) above, with E6K, I11V, A41N, A127C counted along it

[13] = biological target: IL-18 variant SEQ ID NO: 5 (E6K, V11I, C38A, K53A, T63A, C68A, C76A, M86C, C127A) (human) (UniProt Q14116); experiment: cell-based or functional assay
IL-18 variant SEQ ID NO: 5 (E6K, V11I, C38A, K53A, T63A, C68A, C76A, M86C, C127A) (human), sequence (Q14116 other isoform, or with tags, fused parts or gaps with the stated changes): as the sequence (Q14116 37-193 V47I/C74A/N77A/K89A/C112A/C163A) above, with E6K, A41N, T63A, C68A, M86C counted along it

[14] = biological target: IL-18 variant SEQ ID NO: 223 (K8E, V11I, C38A, C76A, Q103R, C127A) (human) (UniProt Q14116); experiment: cell-based or functional assay
IL-18 variant SEQ ID NO: 223 (K8E, V11I, C38A, C76A, Q103R, C127A) (human), sequence (Q14116 other isoform, or with tags, fused parts or gaps V11I C38A C76A Q103R C127A V11I C38A C76A Q103R C127A): as the sequence (Q14116 37-193 V47I/C74A/N77A/K89A/C112A/C163A) above, with K8E, A41N, A53K, Q103R counted along it

[15] = biological target: IL-18 variant SEQ ID NO: 62 (E6K, C38A, K53A, C127A) (human) (UniProt Q14116); experiment: cell-based or functional assay
IL-18 variant SEQ ID NO: 62 (E6K, C38A, K53A, C127A) (human), sequence (Q14116 other isoform, or with tags, fused parts or gaps C38A K53A C127A C38A K53A C127A): as the sequence (Q14116 37-193 V47I/C74A/N77A/K89A/C112A/C163A) above, with E6K, I11V, A41N, A76C counted along it

[16] = biological target: IL-18 variant SEQ ID NO: 63 (E6K, C38A, K53A, C76A, C127A) (human) (UniProt Q14116); experiment: cell-based or functional assay
IL-18 variant SEQ ID NO: 63 (E6K, C38A, K53A, C76A, C127A) (human), sequence (Q14116 other isoform, or with tags, fused parts or gaps C38A K53A C76A C127A C38A K53A C76A C127A): as the sequence (Q14116 37-193 V47I/C74A/N77A/K89A/C112A/C163A) above, with E6K, I11V, A41N counted along it

[17] = biological target: IL-18 variant SEQ ID NO: 30 with 10 kDa PEG (E6K, V11I, C38A, K53A, T63A, C76A, C127A, C68-10kPEG) (human) (UniProt Q14116); experiment: cell-based or functional assay
IL-18 variant SEQ ID NO: 30 with 10 kDa PEG (E6K, V11I, C38A, K53A, T63A, C76A, C127A, C68-10kPEG) (human), sequence (Q14116 other isoform, or with tags, fused parts or gaps with the stated changes): as the sequence (Q14116 37-193 V47I/C74A/N77A/K89A/C112A/C163A) above, with E6K, A41N, T63A counted along it

[18] = biological target: IL-18 variant SEQ ID NO: 226 (V11I, C38A, S55R, C76A, C127A) (human) (UniProt Q14116); experiment: cell-based or functional assay
IL-18 variant SEQ ID NO: 226 (V11I, C38A, S55R, C76A, C127A) (human), sequence (Q14116 37-193 V47I/C74A/S91R/C112A/C163A): as the sequence (Q14116 37-193 V47I/C74A/N77A/K89A/C112A/C163A) above, with A41N, A53K, S55R counted along it

[19] = biological target: IL-18 variant SEQ ID NO: 57 (E6K, C38S, K53A) (human) (UniProt Q14116); experiment: cell-based or functional assay
[20] = biological target: IL-18 variant SEQ ID NO: 215 (V11I, E31A, D37A, C38A, K53A, C76A, C127A) (human) (UniProt Q14116); experiment: cell-based or functional assay
IL-18 variant SEQ ID NO: 215 (V11I, E31A, D37A, C38A, K53A, C76A, C127A) (human), sequence (Q14116 37-193 V47I/E67A/D73A/C74A/K89A/C112A/C163A): as the sequence (Q14116 37-193 V47I/C74A/N77A/K89A/C112A/C163A) above, with E31A, D37A, A41N counted along it

[21] = biological target: IL-18 variant SEQ ID NO: 6 (E6K, V11I, C38A, K53A, T63A, C68A, C76A, D98C, C127A) (human) (UniProt Q14116); experiment: cell-based or functional assay
[22] = biological target: IL-18 variant SEQ ID NO: 229 (V11I, C38A, C76A, S105K, C127A) (human) (UniProt Q14116); experiment: cell-based or functional assay
IL-18 variant SEQ ID NO: 229 (V11I, C38A, C76A, S105K, C127A) (human), sequence (Q14116 37-193 V47I/C74A/C112A/S141K/C163A): as the sequence (Q14116 37-193 V47I/C74A/N77A/K89A/C112A/C163A) above, with A41N, A53K, S105K counted along it

[23] = biological target: IL-18 variant SEQ ID NO: 5 with 30 kDa PEG (E6K, V11I, C38A, K53A, T63A, C68A, C76A, C127A, M86C-30kPEG) (human) (UniProt Q14116); experiment: cell-based or functional assay
IL-18 variant SEQ ID NO: 5 with 30 kDa PEG (E6K, V11I, C38A, K53A, T63A, C68A, C76A, C127A, M86C-30kPEG) (human), sequence (Q14116 other isoform, or with tags, fused parts or gaps with the stated changes): as the sequence (Q14116 37-193 V47I/C74A/N77A/K89A/C112A/C163A) above, with E6K, A41N, T63A, C68A, M86C counted along it

[24] = biological target: IL-18 variant SEQ ID NO: 218 (V11I, C38A, K53A, C76A, C127A, D132A) (human) (UniProt Q14116); experiment: cell-based or functional assay
IL-18 variant SEQ ID NO: 218 (V11I, C38A, K53A, C76A, C127A, D132A) (human), sequence (Q14116 37-193 V47I/C74A/K89A/C112A/C163A/D168A): as the sequence (Q14116 37-193 V47I/C74A/N77A/K89A/C112A/C163A) above, with A41N, D132A counted along it

[25] = biological target: IL-18 variant SEQ ID NO: 11 (E6K, V11I, C38A, K53A, C76A, C127A) (human) (UniProt Q14116); experiment: cell-based or functional assay
IL-18 variant SEQ ID NO: 11 (E6K, V11I, C38A, K53A, C76A, C127A) (human), sequence (Q14116 other isoform, or with tags, fused parts or gaps V11I C38A K53A C76A C127A V11I C38A K53A C76A C127A): as the sequence (Q14116 37-193 V47I/C74A/N77A/K89A/C112A/C163A) above, with E6K, A41N counted along it

[26] = biological target: IL-18 variant SEQ ID NO: 222 (K8R, V11I, C38A, C76A, Q103E, C127A) (human) (UniProt Q14116); experiment: cell-based or functional assay
IL-18 variant SEQ ID NO: 222 (K8R, V11I, C38A, C76A, Q103E, C127A) (human), sequence (Q14116 other isoform, or with tags, fused parts or gaps V11I C38A C76A Q103E C127A V11I C38A C76A Q103E C127A): as the sequence (Q14116 37-193 V47I/C74A/N77A/K89A/C112A/C163A) above, with K8R, A41N, A53K, Q103E counted along it

[27] = biological target: IL-18 variant SEQ ID NO: 9 with 30 kDa PEG (E6K, C38A, K53A, C68A, D98C-30kPEG) (human) (UniProt Q14116); experiment: cell-based or functional assay
IL-18 variant SEQ ID NO: 9 with 30 kDa PEG (E6K, C38A, K53A, C68A, D98C-30kPEG) (human), sequence (Q14116 other isoform, or with tags, fused parts or gaps C38A K53A C68A D98C C38A K53A C68A D98C): as the sequence (Q14116 37-193 V47I/C74A/N77A/K89A/C112A/C163A) above, with E6K, I11V, A41N, C68A, A76C, D98C, A127C counted along it

[28] = biological target: IL-18 variant SEQ ID NO: 28 (E6K, C38A, K53A, T63A, C76A, C127A) (human) (UniProt Q14116); experiment: cell-based or functional assay
IL-18 variant SEQ ID NO: 28 (E6K, C38A, K53A, T63A, C76A, C127A) (human), sequence (Q14116 other isoform, or with tags, fused parts or gaps C38A K53A T63A C76A C127A C38A K53A T63A C76A C127A): as the sequence (Q14116 37-193 V47I/C74A/N77A/K89A/C112A/C163A) above, with E6K, I11V, A41N, T63A counted along it

[29] = biological target: IL-18 variant SEQ ID NO: 211 (V11I, T34A, C38A, K53A, C76A, C127A) (human) (UniProt Q14116); experiment: cell-based or functional assay
IL-18 variant SEQ ID NO: 211 (V11I, T34A, C38A, K53A, C76A, C127A) (human), sequence (Q14116 37-193 V47I/T70A/C74A/K89A/C112A/C163A): as the sequence (Q14116 37-193 V47I/C74A/N77A/K89A/C112A/C163A) above, with T34A, A41N counted along it

[30] = biological target: IL-18 variant SEQ ID NO: 207 (V11I, C38A, M51G, K53A, C76A, C127A) (human) (UniProt Q14116); experiment: cell-based or functional assay
IL-18 variant SEQ ID NO: 207 (V11I, C38A, M51G, K53A, C76A, C127A) (human), sequence (Q14116 37-193 V47I/C74A/M87G/K89A/C112A/C163A): as the sequence (Q14116 37-193 V47I/C74A/N77A/K89A/C112A/C163A) above, with A41N, M51G counted along it

IL-18 variant SEQ ID NO: 57 (E6K, C38S, K53A) (human), sequence (Q14116 other isoform, or with tags, fused parts or gaps C38S K53A C38S K53A): as the sequence (Q14116 37-193 V47I/C74A/N77A/K89A/C112A/C163A) above, with E6K, I11V, A38S, A41N, A76C, A127C counted along it
Native IL-18 wild-type (SEQ ID NO: 1, native sequence) (human), sequence (Q14116 37-193): as the sequence (Q14116 37-193 V47I/C74A/N77A/K89A/C112A/C163A) above, with I11V, A38C, A41N, A53K, A76C, A127C counted along it
IL-18 variant SEQ ID NO: 30 with 20 kDa PEG (E6K, V11I, C38A, K53A, T63A, C76A, C127A, C68-20kPEG) (human), sequence (Q14116 other isoform, or with tags, fused parts or gaps with the stated changes): as the sequence (Q14116 37-193 V47I/C74A/N77A/K89A/C112A/C163A) above, with E6K, A41N, T63A counted along it

Work on “Fc fused human IL-18BP isoform a (IL-18BPa) (from UniProt O95998 31-194) (Fc fusion)” yielded an IC50 (read off the curve); IFNγ secretion by NK-92 cells (IFNg AlphaLISA signal, 615 nM) [1] of 200 nM, an IC50 (read off the curve); IFNγ secretion by NK-92 cells (IFNg AlphaLISA signal, 615 nM) [2] of 0.9 nM and an IC50 of IL-18BPa-Fc on IFNγ secretion, NK-92 [3] of 44.2 nM. It also gave an IC50 of IL-18BPa-Fc on IFNγ secretion, NK-92 [4] of 0.681 nM, an IC50 of IL-18BPa-Fc on IFNγ secretion, NK-92 [5] of 1.17 nM and an IC50 of IL-18BPa-Fc on IFNγ secretion, NK-92 [6] of 3.62 nM. It also gave an IC50 of IL-18BPa-Fc on IFNγ secretion, NK-92 [7] of 1000 nM, an IC50 of IL-18BPa-Fc on IFNγ secretion, NK-92 [8] of 12.2 nM and an IC50 of IL-18BPa-Fc on IFNγ secretion, NK-92 [9] of 2.22 nM. The IC50 of IL-18BPa-Fc on IFNγ secretion, NK-92 [10] was 3.18 nM, the IC50 of IL-18BPa-Fc on IFNγ secretion, NK-92 [11] was 47.6 nM and the IC50 of IL-18BPa-Fc on IFNγ secretion, NK-92 [12] was 779 nM. It also gave an IC50 of IL-18BPa-Fc on IFNγ secretion, NK-92 [13] of 358 nM, an IC50 of IL-18BPa-Fc on IFNγ secretion, NK-92 [14] of 7.29 nM and an IC50 of IL-18BPa-Fc on IFNγ secretion, NK-92 [15] of 284 nM. It also gave an IC50 of IL-18BPa-Fc on IFNγ secretion, NK-92 [16] of 286 nM, an IC50 of IL-18BPa-Fc on IFNγ secretion, NK-92 [17] of 67.1 nM and an IC50 of IL-18BPa-Fc on IFNγ secretion, NK-92 [18] of 0.885 nM. The IC50 of IL-18BPa-Fc on IFNγ secretion, NK-92 [19] was 146 nM, the IC50 of IL-18BPa-Fc on IFNγ secretion, NK-92 [20] was 3.71 nM and the IC50 of IL-18BPa-Fc on IFNγ secretion, NK-92 [21] was 25.3 nM. It also gave an IC50 of IL-18BPa-Fc on IFNγ secretion, NK-92 [22] of 0.176 nM, an IC50 of IL-18BPa-Fc on IFNγ secretion, NK-92 [23] of 32.5 nM and an IC50 of IL-18BPa-Fc on IFNγ secretion, NK-92 [24] of 6.08 nM. It also gave an IC50 of IL-18BPa-Fc on IFNγ secretion, NK-92 [25] of 532 nM, an IC50 of IL-18BPa-Fc on IFNγ secretion, NK-92 [26] of 1.07 nM and an IC50 of IL-18BPa-Fc on IFNγ secretion, NK-92 [27] of 143 nM. It also gave an IC50 of IL-18BPa-Fc on IFNγ secretion, NK-92 [28] of 233 nM, an IC50 of IL-18BPa-Fc on IFNγ secretion, NK-92 [29] of 21.3 nM and an IC50 of IL-18BPa-Fc on IFNγ secretion, NK-92 [30] of 733 nM.
